Residue numbers refer to the chain shown, from its start.
T1: full-length TRF2 (UniProt Q15554 1-542)
T1 construct: also called TERF2; source: E. coli, autoinduction medium, purified (Ni-NTA, Superdex 75); not shown: His6-SUMO, N-terminal, cleaved
T1 sequence (looked up): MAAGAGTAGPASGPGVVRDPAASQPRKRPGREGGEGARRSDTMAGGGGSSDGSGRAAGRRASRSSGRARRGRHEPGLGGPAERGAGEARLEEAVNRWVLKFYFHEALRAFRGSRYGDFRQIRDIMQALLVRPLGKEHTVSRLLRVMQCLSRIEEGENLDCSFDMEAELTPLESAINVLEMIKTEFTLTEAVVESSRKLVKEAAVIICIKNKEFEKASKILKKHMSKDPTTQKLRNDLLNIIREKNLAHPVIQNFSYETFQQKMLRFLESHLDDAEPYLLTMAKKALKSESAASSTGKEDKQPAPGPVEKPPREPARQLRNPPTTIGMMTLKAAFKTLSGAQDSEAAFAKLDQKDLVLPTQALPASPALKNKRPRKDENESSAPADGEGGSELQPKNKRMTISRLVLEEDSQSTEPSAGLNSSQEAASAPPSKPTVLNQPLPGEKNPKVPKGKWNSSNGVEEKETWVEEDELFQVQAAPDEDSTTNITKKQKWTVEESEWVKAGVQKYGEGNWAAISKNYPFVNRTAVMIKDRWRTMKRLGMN

T2: full-length Rap1 (human, UniProt Q9NYB0 1-399)
T2 construct: also called TERF2IP; source: E. coli, autoinduction medium, purified (Ni-NTA, Superdex 75); not shown: His6-SUMO, N-terminal, cleaved
T2 sequence (looked up): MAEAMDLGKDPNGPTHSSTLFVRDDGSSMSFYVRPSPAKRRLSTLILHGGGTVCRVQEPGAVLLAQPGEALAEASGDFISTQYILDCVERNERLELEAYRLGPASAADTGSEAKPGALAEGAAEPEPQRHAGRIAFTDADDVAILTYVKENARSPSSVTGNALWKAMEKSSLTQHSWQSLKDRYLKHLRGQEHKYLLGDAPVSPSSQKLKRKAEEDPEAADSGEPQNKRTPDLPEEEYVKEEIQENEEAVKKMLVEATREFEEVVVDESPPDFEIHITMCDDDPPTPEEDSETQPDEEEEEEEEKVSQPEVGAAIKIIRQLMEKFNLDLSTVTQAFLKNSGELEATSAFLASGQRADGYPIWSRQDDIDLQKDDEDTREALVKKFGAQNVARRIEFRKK

T3: EBNA1Δ90–325 3x (E495A D499A E500A) (Epstein-Barr virus, UniProt P03211 1-641, Δ90–325 | E495A | D499A | E500A)
T3 construct: also called 3x mutant EBNA1; source: E. coli, autoinduction medium, purified (Ni-NTA, Superdex 75); not shown: His6-SUMO, N-terminal, cleaved
T3 sequence: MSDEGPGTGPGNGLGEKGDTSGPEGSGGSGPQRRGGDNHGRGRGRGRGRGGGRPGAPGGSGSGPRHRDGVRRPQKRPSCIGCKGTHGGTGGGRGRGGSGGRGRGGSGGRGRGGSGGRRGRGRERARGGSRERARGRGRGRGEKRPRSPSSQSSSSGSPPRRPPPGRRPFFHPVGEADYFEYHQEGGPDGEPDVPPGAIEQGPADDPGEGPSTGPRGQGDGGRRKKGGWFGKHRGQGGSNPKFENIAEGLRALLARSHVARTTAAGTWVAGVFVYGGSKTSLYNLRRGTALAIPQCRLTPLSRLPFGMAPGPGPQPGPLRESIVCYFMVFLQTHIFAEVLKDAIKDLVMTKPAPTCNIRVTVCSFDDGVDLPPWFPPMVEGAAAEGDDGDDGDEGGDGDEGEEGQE

B1: EBNA1ΔGA (Δ90–325), wild type (natural protein)
chain: T3 sequence with A259E, A263D, A264E
notes: also called WT EBNA1; "full-length" EBNA1; source: E. coli, autoinduction medium, purified (Ni-NTA, Superdex 75); not shown: His6-SUMO, N-terminal, cleaved
B2: EBNA1 459–607 (domain or fragment)
chain: RKKGGWFGKHRGQGGSNPKFENIAEGLRALLARSHVERTTDEGTWVAGVFVYGGSKTSLYNLRRGTALAIPQCRLTPLSRLPFGMAPGPGPQPGPLRESIVCYFMVFLQTHIFAEVLKDAIKDLVMTKPAPTCNIRVTVCSFDDGVDLP
notes: also called shorter EBNA1 459–607; core structured DBD; source: E. coli (all constructs), purified
B3: TRF2 homodimerization domain (TRFH), residues 85–287 of TRF2 (domain or fragment, UniProt Q15554 85-287, looked up)
chain: AGEARLEEAVNRWVLKFYFHEALRAFRGSRYGDFRQIRDIMQALLVRPLGKEHTVSRLLRVMQCLSRIEEGENLDCSFDMEAELTPLESAINVLEMIKTEFTLTEAVVESSRKLVKEAAVIICIKNKEFEKASKILKKHMSKDPTTQKLRNDLLNIIREKNLAHPVIQNFSYETFQQKMLRFLESHLDDAEPYLLTMAKKALK
notes: also called TRFH domain; TRF2 dimerization domain; source: E. coli (all constructs), purified
B4: EBNA1 DNA binding domain (DBD) aa 401–607 (domain or fragment)
chain: GRRPFFHPVGEADYFEYHQEGGPDGEPDVPPGAIEQGPADDPGEGPSTGPRGQGDGGRRKKGGWFGKHRGQGGSNPKFENIAEGLRALLARSHVERTTDEGTWVAGVFVYGGSKTSLYNLRRGTALAIPQCRLTPLSRLPFGMAPGPGPQPGPLRESIVCYFMVFLQTHIFAEVLKDAIKDLVMTKPAPTCNIRVTVCSFDDGVDLP
notes: also called EBNA1 DBD; EBNA1(401–607); source: E. coli, autoinduction medium, purified (Ni-NTA, Superdex 75); not shown: His6-SUMO, N-terminal, cleaved
B5: pre-assembled full length TRF2/Rap1 complex (complex)
chain 1: T1 sequence (looked up)
chain 2: T2 sequence (looked up)
notes: source: E. coli, each protein purified; complex pre-assembled and purified by glycerol gradient; not shown: His6-SUMO, N-terminal, cleaved

Assays:
Conditions in all cases: both partners purified
[1] = target: B5; assay: native gel or EMSA; pre-assembled TRF2-Rap1 complex (glycerol gradient) serially diluted onto pre-assembled ½DS-EBNA1 complex (10X stock 200 nM EBNA1, 50 nM ½DS DNA); binding buffer with 300 mM KCl; 1.4% agarose gel
[2] = target: B3; assay: native gel or EMSA; TRFH domain added to the ½DS-EBNA1 complex; binding buffer lowered to 100 mM KCl, highest TRFH 10 μM (1000-fold excess); under standard conditions only a weak supershift
[3] = target: B4; assay: as above
[4] = target: T1, full-length TRF2; assay: native gel or EMSA; EBNA1 DBD pre-formed on the 60 bp ½DS DNA probe (5 nM, IRD700), TRF2 and then Rap1 added; 10 mM HEPES pH 7.5, 300 mM KCl, 5 mM MgCl2, 1 mM ZnCl2, 5 mM BME, 0.05% NP-40, 5% glycerol; 1.4% agarose gel
[5] = target: T2, full-length Rap1; assay: as above
[6] = target: T3, EBNA1Δ90–325 3x (E495A D499A E500A); assay: native gel or EMSA; pre-assembled TRF2-Rap1 complex (glycerol gradient) serially diluted onto pre-assembled ½DS-EBNA1 complex (10X stock 200 nM EBNA1, 50 nM ½DS DNA); binding buffer with 300 mM KCl; 1.4% agarose gel

B1
binding result [1]: binds

B2
binding result [2]: binds

B3
binding result [3]: binds

B4
binding result [4]: binds
binding result [5]: binds

B5
fold weaker than with WT EBNA1 [6]: ~2 fold

Reference: article PMC12636746, “Structural Basis for TRF2-RAP1 Recruitment by EBNA1 at the EBV origin of replication” (Research Square, 2025)
